The record followed here is publication PMC4688034 (Cell Reports, 2015).

Test [1] has as its system γH2AX foci in HeLa cells. As to the kind of experiment: γH2AX focus formation after irradiation. Format: cell-based. The note with it: 10 μM inhibitor, 1 hr prior to 3 Gy IR, fixed 30 min later.
Test [2] concerns the target 53BP1 BRCT2 domain (UniProt Q12888). As to the kind of experiment: fluorescence polarization titration. The note with it: reference: pS139 peptide, untreated; sites S139. On the technique in general: Polarisation of emitted light reports the rotation of a fluorescent probe.
Test [3] addresses fluorescein-…pSQEY (γH2AX phosphopeptide) (human). Briefly: fluorescence polarisation.
Test [4] addresses His6-SUMO-53BP1-BRCT2.

In the case of `O=c1cc(-c2cccc3c2Sc2ccccc2S3)oc(N2CCOCC2)c1` [KU55933], the “γH2AX focus formation on irradiation” value in test [1] is “substantially diminished”.

In the case of “H2AX (γH2AX when phosphorylated on Ser139) C-terminal 13 residues, 130-142 (from UniProt P16104) λ-phosphatase treated peptide”, the KD result in test [2] is “lost; reference 1.4 ± 0.15”.

As a reminder, the Kd is a measure of binding affinity in units of concentration. The term stoichiometry N denotes the number of molecules, sites or subunits per partner or assembly. With “His6-SUMO-53BP1-BRCT2 (domain or fragment)”, the equilibrium dissociation constant (Kd) in test [3] turned out to be 1400 nM. Also, in test [4], the stoichiometry N came to 2.
